Assay: soluble fraction after stress (log2 fold change); higher = more stays soluble; pooled small domains, quantitative proteomics
Conditions: stress: pH 4
Outline: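 Pooled custom libraries of small protein domains were subjected to pH 4 and measured by high-throughput quantitative proteomics. The log2 fold change in soluble amount per domain is reported, higher values meaning more remained soluble. This is used as a measure of aggregation propensity.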

Row | Sequence | soluble fraction (log2)
1 | HMYKDVVVPNTVGDSEEKAYQTLSALGLVVNITYDEDASKSDRVVTSQNPTNKTIKEGESVNIVVNKQP | -0.242
2 | HMKALHEEIAEKIQEQILRSNLAPGDKLDTELELAARYGVSRSTIRQALIQLESAGLIDRLHGRGTFVAD | 0.029
3 | HMLSPAQSLLLRTAARRPDGRVIPPDTLRGGARVKVLTSLLQRGWIEPVDGGHVLTDAGYAAIG | ≥ 0.43
4 | HMATHWHITPNPNNGKFLISGLMQDDSFHLMDASGQWLRQLRTVNQELDLDLQPGVYFLKDNSGSVMKFVV | -1.15
5 | HMNTEVDKVLLRSGEAYFGEVLLRNDELVMMKTQDGARFQFPVSEIKSIEKVSVADALRHINS | 0.162
6 | HMKAPDSQYKPLTDFQTDASFQKLDAYLRNRYPAMLANAVVYDVLRTPDAISYRVNYQVDNKMITINAAVT | 0.157
7 | HMPLITAIELDSISARSFQFNTQSGSTYFIEGSTDLKSWDVIAEVKATDSTTTYEDHRKIYHEAYFYRVRL | -1.55
8 | HMGEKFTFGQIAKAKAYAKTYANDMTSAVKNIEAIATGLSKHPEVADTLKKANENQELNRITKLAG | 0.369
9 | HMEQVVFNGTGRRKSSIARVRIMSGKGNITVNGKALDEYFGEETLKVIVRQPLTVTDTLDKYDVIATVK | -0.0364
10 | HMSQIANLLLSKNIKVNNQNIIYYETVLKYLPNNEKKEFFINAMKNNIYFTEEEIKNFGNIFN | -0.786
11 | HMFKITNTLNKTAEVYLTIPENKKGKGKIMISVNGAFHELEAMTENDKIQSGAVVKVVRIENDNILIVET | -1.96
12 | HMPRYQQIARQLKTAIEHGELKPGARLPSSRTWSQELGISRSTVESAYTELVAQGWLERRGQAGTFVSAQL | 0.0517
13 | HMSDPDPAEQALLRQFMTRYAAYRRRGQHPAGAFRTASLEVFGQEPSGDLRDVIVDLESGLV | -0.59
14 | HMSEPFDMAVPLTSGGRRLDQVLAELLPQHSRNRLQGWIRDGLLTLDGVTVTEPKRKLAGGEQLALLLP | -0.238
15 | HMIIVMSANANAREISEVIARIRAMGYDVHLSHGKERTIIGVIGRGTPIDREQLSLMSGVQQVMPV | -0.109
16 | HMADLVYLRKRLQDAIAQLPEDMRTAYTLFQIARRSIREIAELTGASESLVKVRIHRAKGKLQELLEDLR | -0.55
17 | HMVDTEVFSRLLRKVLAGDVTSAIRILEELIVGGRELSQFVGDFTWYMRNLLLVKTSDNPEEA | -0.116
18 | HMGSFTDKQIKQAFGVLNDPRFKQGNYDGAVAVINKIAPGLADHPSVANALKRANEATQDIAQQTQA | 0.161
19 | HMKILNYQSLVGKKGITKSMLRPAGIVEIEGRRYDVVTRGEFIEPGKMITVDEVQGNRIIVQIERE | 0.189
20 | HMSTSRAEIIAFLKSNPSSEYKHELETKLDEMDWAEAVKGNSEESFLAYKQRQPNGTHNGEADEKLKVLLV | -0.171
21 | HMIMNLNVLANNVRRLRTAQRLSQSALASKAGLSVPAIKNLENARNEPRVNTVQVIAHALEVRLQDLFAPT | 0.18
22 | HMVLQHHTATKALSYHTSASASAAVKGSFARGDSVQVVQGGSQTADGAKWHKVKVGSSYYYAAAEHLTP | -0.616
23 | HMNKPTSMYKLRLLLKHYHAGASKRWMADVLDISRSTLNVYLARIESLNLAFEEWEALSDLEVSRLLINP | -0.852
24 | HMNEPITIALREAEEAANKILNEGVHSVELSPQNGYVRRLQHELIARYGLTSASRGSDPSRRVSVGAN | -0.273
25 | HMGKPSSEELEALGRRTLEENVDVVEEILGGRDPKGKKIKYLEGLMMRALRGQETPEAVRRTLEELIFK | 0.00684
26 | HMSVSVEEDADGRVWVYYQDQKMDITDLFDENGVYGFNLEKGDRTVYVEVTKNADGTYSFTQTD | -1.34
27 | HMGFSERLAQAMSHAGYTQGGLAKAVGMAQSSVNKLLNNANSSRKTVEIASVLGVRPEWLSTGEGDML | 0.188
28 | HMPGKVSDAGATAKDNRLFLEAVFWRVRTGSPWRDLPPAFGHWNSQFRRFRRWAKAGVFESLFNA | 0.179

Row | Sequence | soluble fraction (log2)
29 | HMSGDKKLQMNLILEFAQQNESFRTKDIEELLQIRSSRARKLISDLVTEGRLEALGENRNRRYQLI | -0.329
30 | HMEAMITEVKRINYGLISDISKSLDPFKSEGGHIIVDKRTNTFILTDLRANIEKMLWSIEIMD | -0.248
31 | HMAARKDLIAGEDAEGRLDAWLAAALDGEFSRNRVKALIEQGAVAINDVAVTEPKRKIRPGDRLSIVLPEP | 0.248
32 | HMYLQKGISNGKVYLSIVHGYRDPVTKKVRRKTIRSLGYLEDLEKQYADPIKHFEAVVAKMNEEEALE | 0.0302
33 | HMGDDVRKNILDVLSKFERVDITDLDSLELVRFYLEIEDIFDIEIKENDFYRLKSVDSIVDYIRNKSFF | -1.64
34 | HMDPERVVGQTGIVHLRIPARQHNTGKVMIEVQGSLREFDAVSEAEEIPTGTPILIVGRTEEGVFIAQPF | -0.823
35 | HMTRPLVILEDVKFPSYNEIVSLTLPDGTRRGGQVLEVSGNKAIVQVFEGTSGIDVKDTHIELTKSS | 0.0449
36 | HMTPVEVNARGVHVDFSKGGILLEDVVRHLILEALRASEWKRGPAAQLLGISKETLRYRMEKYRLYPP | -0.706
37 | HMETSIQFIRLEIGHNHPWVNQTLKEIPTIPGTLIAAVLRGDEDQAIIPKGDTLLKEGDSVIIGAKEYQD | -1.61
38 | HMAPKSALKIIEQISNNPRATMTDLANLTGYSRRWVAQTIKRLQEENIIKRIGSDKSGYWEIIG | 0.417
39 | HMSVIETLLSDREREVLTHLVNGYDAKRIAEITGISTLTVRKHIANIYTKLHVNSKAQVISMAHKNKWF | -0.773
40 | HMIDTPQELARLLRLLDEQNFEAEILFHKLRPDLLHLWSKEHVTRIAEALDAFDYQMALTLLNASP | -2.15
41 | HMGGLLSVIQKKAINNVKDRYSENAIKSMTKVQLHDLIKAETSRLLDPANAKETPEYQAFLEE | 0.116
42 | HMDINMELGKNIRRLRKLNNLTQQSLANQMNRSKTLIALWEKGERDPSSIDLKRLSEIFNVRADDIIG | -0.00935
43 | HMVAGGTVSRKLSIETGLPKRKSLIGSWLDQNSVWHNIISVRHRNGYGDGVNYGFYLRSLLTSEGNLAW | 0.0466
44 | HMTEPKILTAEESQRLDLILVQQWPELGRRALRELVQQGGVRINGELALKAGQYVQAGERVEVAVP | -0.879
45 | HMIPEKEISYMMPDGFMPKELKIIHITESGRKQIYSAAHKPLDLVNVKAPFVPNTKVQIYINDVPIEELKI | -0.739
46 | HMAQLPADMSKVKSADISEAQLQEFIQKATSSGYNMNQIEMEFAKRGMSENEVSLLRPRLRRLMAS | 0.212
47 | HMSEFLTIVRAVYSGLSRRKVAAMHKVSRNTVSLYLRQARDQGWLTLEDLEKLDDLTVSQGVS | -0.918
48 | HMRRTVIVTAAHAEIRERPDANAPLVFSAEQKVSLDYQETAPGGWVKVRHRDGQSGYVRTNQI | -0.159
49 | HMAFAVWVKLVAIGPNYAQLEIEQGTQRNVRTLRPGDDAPEGVRLLSLTPTHAEVQANGIARKLALGQGMA | -0.0174
50 | HMIPEGKWMEDPISEGQIKFIETLIKQAIDSGQDALGAEAKQYLSSGEATKGNASSMIDKLKDAL | -0.479
51 | HMQNNITISKEIELRTGPDDTYPTLKKVTAGDNVEMLSKSDTWYEIKTNDSFVGWVPGWSIL | -0.656
52 | HMPEVYSFEVNEGAAGKRLDIFLSGEIEGLTRSFIQKLISEGMATVNQEPPRASYRVKTRDLVELQIPDPE | -0.309
53 | HMTNATVGQIKKLARASILYGNSNLSGNRYTYKANTTVTILQNISSNVDKIRVNVTGRVAYIDNSNYSSST | 0.34
54 | HMINFLSKREIEVLRLVADGLSNRDVGQYLFISESTVKRHLSTIYEKLAVKSRTQAIDHARRADL | -1.39
55 | HMPVEHVWHIAENGQTSGPYSKARMGRMAQEGQLTRDTHVWTPGQDGWMRAGDVTELAQLFT | -0.0732

Source: the domain aggregation screens of Martell et al. (2025)
